Target: Clostridium perfringens archaeal-type phosphoenolpyruvate carboxylase (PepcA) (Clostridium perfringens) (UniProt Q8XLE8)
Assay: AUC

For “Clostridium perfringens archaeal-type phosphoenolpyruvate carboxylase (PepcA) (from UniProt Q8XLE8 1-537) (enzyme)”, the percent of the total concentration as dimer was 30%.

Reference: paper PMC3092815 (Proteins, 2011)
